Values quoted from earlier work in publication doi:10.1101/2024.09.05.611512.

Experiments:
S100A10 (Homo sapiens) = S100A10 (Homo sapiens) (UniProt P60903)
[1] = biological target: calpain 1 & 2 (Homo sapiens) (UniProt P07384)
UniProt P07384, sequence (P07384 2-714): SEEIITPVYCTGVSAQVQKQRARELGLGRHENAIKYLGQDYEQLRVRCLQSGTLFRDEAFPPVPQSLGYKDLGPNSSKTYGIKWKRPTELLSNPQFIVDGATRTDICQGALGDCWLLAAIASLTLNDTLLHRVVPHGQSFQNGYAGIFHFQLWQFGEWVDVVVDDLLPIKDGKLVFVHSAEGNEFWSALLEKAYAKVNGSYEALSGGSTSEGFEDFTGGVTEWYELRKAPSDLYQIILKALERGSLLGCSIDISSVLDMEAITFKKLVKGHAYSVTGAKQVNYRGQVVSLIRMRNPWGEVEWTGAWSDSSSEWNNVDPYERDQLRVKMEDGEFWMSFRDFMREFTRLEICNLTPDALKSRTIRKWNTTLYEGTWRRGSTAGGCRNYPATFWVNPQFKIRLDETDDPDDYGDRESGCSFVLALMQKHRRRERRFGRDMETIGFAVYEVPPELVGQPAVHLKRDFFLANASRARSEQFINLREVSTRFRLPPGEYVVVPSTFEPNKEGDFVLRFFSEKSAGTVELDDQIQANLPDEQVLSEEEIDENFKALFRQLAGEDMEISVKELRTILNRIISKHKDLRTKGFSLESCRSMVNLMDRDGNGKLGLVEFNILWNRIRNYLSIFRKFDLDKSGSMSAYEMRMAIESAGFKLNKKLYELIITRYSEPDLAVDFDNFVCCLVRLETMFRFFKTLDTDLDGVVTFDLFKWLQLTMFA

UniProt P60903, sequence (P60903 whole entry): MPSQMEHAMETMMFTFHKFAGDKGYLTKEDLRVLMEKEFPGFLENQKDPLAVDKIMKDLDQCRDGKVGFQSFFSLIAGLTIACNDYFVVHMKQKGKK

Kd (S100A10 (Homo sapiens)) [µM] | Ki [1] [µM] | Substance
0.013 |  | annexin A2 first 10-12 residues (from UniProt P07355)
 | 0.015 | calpastatin domain I (from UniProt P20810)
